According to paper doi:10.1101/2025.09.08.674899 (bioRxiv, 2025):

Target: T1, PSAF subunit of Chlamydomonas reinhardtii Photosystem I (Chlamydomonas reinhardtii (endogenous …, UniProt P12356 63-227))
T1 sequence (looked up): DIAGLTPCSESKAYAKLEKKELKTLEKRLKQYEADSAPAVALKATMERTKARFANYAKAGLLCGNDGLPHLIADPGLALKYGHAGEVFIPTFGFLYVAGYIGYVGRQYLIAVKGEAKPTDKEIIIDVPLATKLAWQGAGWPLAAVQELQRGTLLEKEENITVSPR
Assay: cross-linking

B1: Chlamydomonas reinhardtii cytochrome c6 E71Q (natural protein)
chain: ADLALGAQVFNGNCAACHMGGRNSVMPEKTLDKAALEQYLDGGFKVESIIYQVENGKGAMPAWADRLSEEQIQAVAEYVFKQATDAAWKY
modifications: heme (c-type cytochrome)
B1: binds.
